Results as given in publication PMC5234717 (Journal of Lipid Research, 2016).

Biological target: Burkholderia pseudomallei K96243 sphingosine-1-phosphate lyase S1PL2021 (shorter ORF of BPSS2021, st (Burkholderia pseudomallei K96243))
Experiment: SEC

Substance “Burkholderia pseudomallei K96243 sphingosine-1-phosphate lyase S1PL2021 (shorter ORF of BPSS2021, st (enzyme)” has a stoichiometry N of 2.
